# Test results: article PMC9886945
# How the values were obtained:
# [1] = molecular target: Mtb RNAP holoenzyme with σ^B in which residues 252-323 (subregion 4.2) are deleted (M. tuberculosis) (UniProt P9WGZ1); assay: negative stain EM
# [2] = molecular target: Mtb RNAP holoenzyme with σ^B in which residues 252-323 (subregion 4.2) are deleted (M. tuberculosis) (UniProt P9WGZ1); assay: SEC
substance,measurement,setting,value
"Mtb RNAP holoenzyme with σ^B in which residues 252-323 (subregion 4.2) are deleted, P9WGZ1;P9WGY9;P9WGY7;P9WGY5;P9WGI5",stoichiometry N,[1],8
same,stoichiometry N,[2],8
